T1: 1xMBD-GFP (UniProt Q9Z2E2 1-75)
T1 sequence: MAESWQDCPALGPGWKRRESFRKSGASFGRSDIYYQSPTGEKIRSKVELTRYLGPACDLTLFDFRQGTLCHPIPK

B1: o_m_m/o_o_o (dsDNA)
DNA 1: TTTGCGGTCCGCTGCCCGACCC
DNA 2: GGGTCGGGCAGCGGACCGCAAA
modifications: strand 1 5mC10,5mC17
B2: o_o_o/m_o_o (dsDNA)
DNA 1: TTTGCGGTCCGCTGCCCGACCC
DNA 2: GGGTCGGGCAGCGGACCGCAAA
modifications: strand 2 5mC17
B3: m_o_o/m_o_o (dsDNA)
DNA 1: TTTGCGGTCCGCTGCCCGACCC
DNA 2: GGGTCGGGCAGCGGACCGCAAA
modifications: strand 1 5mC5; strand 2 5mC17
B4: m_o_o*/m_o_o (dsDNA)
DNA 1: GTAGTTTGCGGTCCGCTGCCCGACC
DNA 2: GGGTCGGGCAGCGGACCGCAAA
modifications: strand 1 5mC9; strand 2 5mC17
B5: o_m_o/m_o_o (dsDNA)
DNA 1: TTTGCGGTCCGCTGCCCGACCC
DNA 2: GGGTCGGGCAGCGGACCGCAAA
modifications: strand 1 5mC10; strand 2 5mC17
B6: o_o_o_m/o_o_m_o (dsDNA)
DNA 1: GAAGTCAACAGGACGGACGCCGCGCAA
DNA 2: CTCTTTCTTTGCGCGGCGTCCGTCCTGTTGACTTCCTCT
modifications: strand 1 5mC23; strand 2 5mC14
B7: o_o_m_o/o_m_m_o (dsDNA)
DNA 1: GAAGTCAACAGGACGGACGCCGCGCAA
DNA 2: B6 DNA 2
modifications: strand 1 5mC21; strand 2 5mC14,5mC17
B8: o_o_o_m/o_m_m_o (dsDNA)
DNA 1: GAAGTCAACAGGACGGACGCCGCGCAA
DNA 2: B6 DNA 2
modifications: strand 1 5mC23; strand 2 5mC14,5mC17
B9: o_m_o_o/o_o_m_m (dsDNA)
DNA 1: GAAGTCAACAGGACGGACGCCGCGCAA
DNA 2: B6 DNA 2
modifications: strand 1 5mC18; strand 2 5mC12,5mC14
B10: o_o_o_m/o_o_m_m (dsDNA)
DNA 1: GAAGTCAACAGGACGGACGCCGCGCAA
DNA 2: B6 DNA 2
modifications: strand 1 5mC23; strand 2 5mC12,5mC14
B11: m_o_o_o/o_o_m_m (dsDNA)
DNA 1: GAAGTCAACAGGACGGACGCCGCGCAA
DNA 2: B6 DNA 2
modifications: strand 1 5mC14; strand 2 5mC12,5mC14
B12: o_o_o_o/o_m_m_o (dsDNA)
DNA 1: GAAGTCAACAGGACGGACGCCGCGCAA
DNA 2: B6 DNA 2
modifications: strand 2 5mC14,5mC17
B13: o_o_m_o/m_m_o_o (dsDNA)
DNA 1: GAAGTCAACAGGACGGACGCCGCGCAA
DNA 2: B6 DNA 2
modifications: strand 1 5mC21; strand 2 5mC17,5mC21
B14: m_o_o_o/o_m_m_o (dsDNA)
DNA 1: GAAGTCAACAGGACGGACGCCGCGCAA
DNA 2: B6 DNA 2
modifications: strand 1 5mC14; strand 2 5mC14,5mC17
B15: o_o_o_m/m_m_o_o (dsDNA)
DNA 1: GAAGTCAACAGGACGGACGCCGCGCAA
DNA 2: B6 DNA 2
modifications: strand 1 5mC23; strand 2 5mC17,5mC21
B16: o_o_m_o/o_o_m_m (dsDNA)
DNA 1: GAAGTCAACAGGACGGACGCCGCGCAA
DNA 2: B6 DNA 2
modifications: strand 1 5mC21; strand 2 5mC12,5mC14
B17: m_o_o_o/m_m_o_o (dsDNA)
DNA 1: GAAGTCAACAGGACGGACGCCGCGCAA
DNA 2: B6 DNA 2
modifications: strand 1 5mC14; strand 2 5mC17,5mC21
B18: o_o_o_o/m_m_o_o (dsDNA)
DNA 1: GAAGTCAACAGGACGGACGCCGCGCAA
DNA 2: B6 DNA 2
modifications: strand 2 5mC17,5mC21
B19: o_m_o_o/m_m_o_o (dsDNA)
DNA 1: GAAGTCAACAGGACGGACGCCGCGCAA
DNA 2: B6 DNA 2
modifications: strand 1 5mC18; strand 2 5mC17,5mC21
B20: o_m_o_o/o_m_m_o (dsDNA)
DNA 1: GAAGTCAACAGGACGGACGCCGCGCAA
DNA 2: B6 DNA 2
modifications: strand 1 5mC18; strand 2 5mC14,5mC17
B21: o_o_o_o/o_o_m_m (dsDNA)
DNA 1: GAAGTCAACAGGACGGACGCCGCGCAA
DNA 2: B6 DNA 2
modifications: strand 2 5mC12,5mC14
B22: o_o_m/m_m_m (dsDNA)
DNA 1: TTTGCGGTCCGCTGCCCGACCC
DNA 2: GGGTCGGGCAGCGGACCGCAAA
modifications: strand 1 5mC17; strand 2 5mC5,5mC12,5mC17

Biological target: T1, 1xMBD-GFP
Assay: SPR

How did the Kd turn out when B1 was run?
Its Kd is 3.09 ± 0.02 µM.

B2 was tested. Which Kd did it give?
Its Kd is 48 ± 2 µM.

B3 was tested. Which Kd did it give?
Its Kd is 4.2 ± 0.04 µM.

With B4 as the binder, how does the Kd read?
The Kd was 0.87 ± 0.01 µM.

With B5 as the binder, how does the Kd read?
Its Kd is 8 ± 0.1 µM.

How did the Kd turn out when B6 was run?
Its Kd is 2.65 ± 0.03 µM.

Which Kd does the source give for B7 here?
Its Kd is 0.158 ± 0.003 µM.

With B8 as the binder, how does the Kd read?
The Kd was 1.94 ± 0.02 µM.

For B9, which Kd is on record?
The Kd was 2.4 ± 0.04 µM.

With B10 as the binder, how does the Kd read?
Its Kd is 0.281 ± 0.007 µM.

Which Kd does the source give for B11 here?
Its Kd is 3.11 ± 0.03 µM.

Which Kd does the source give for B12 here?
The Kd was 3.19 ± 0.03 µM.

With B13 as the binder, how does the Kd read?
Its Kd is 4.97 ± 0.07 µM.

B14 was tested. Which Kd did it give?
The Kd was 2.4 ± 0.09 µM.

B15 was tested. Which Kd did it give?
Its Kd is 3.94 ± 0.06 µM.

Which Kd does the source give for B16 here?
Its Kd is 0.156 ± 0.002 µM.

For B17, which Kd is on record?
Its Kd is 0.561 ± 0.006 µM.

With B18 as the binder, how does the Kd read?
The Kd was 7.5 ± 0.2 µM.

B19 was tested. Which Kd did it give?
The Kd was 0.377 ± 0.007 µM.

How did the Kd turn out when B20 was run?
The Kd was 0.315 ± 0.004 µM.

For B21, which Kd is on record?
Its Kd is 4.5 ± 0.1 µM.

Biological target: T1, 1xMBD-GFP
Assay: SPR
Remark: another data set of the same source

How did the Kd turn out when B22 was run?
The Kd was 0.189 ± 0.001 µM.

Biological target: T1, 1xMBD-GFP
Assay: SPR
Remark: another data set of the same source

Which Kd does the source give for B22 here?
The Kd was 0.209 ± 0.002 µM.
